1 molecule from article PMC5794803, “IGFBPL1 Regulates Axon Growth through IGF-1-mediated Signaling Cascades” (Scientific Reports, 2018) can be followed below.

For the assay, the target named is recombinant mouse IGF-1 (insulin-like growth factor 1) (mouse, UniProt P05017 49-118). Put plainly: cell-based or functional assay.
recombinant mouse IGF-1 (insulin-like growth factor 1), sequence (P05017 49-118): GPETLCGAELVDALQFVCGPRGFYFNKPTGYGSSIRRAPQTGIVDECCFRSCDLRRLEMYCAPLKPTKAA

B1: recombinant mouse IGFBPL1 (insulin-like growth factor binding protein-like 1) (natural protein, UniProt Q80W15 18-270, looked up)
chain: LGLRDAGRRHPECSPCQQDRCPAPSPCPAPWISARDECGCCARCLGAEGASCGGPVGSRCGPGLVCASRASGTAPEGTGLCVCAQRGAVCGSDGRSYSSICALRLRARHAPRAHHGHLHKARDGPCEFAPVVLMPPRDIHNVTGTQVFLSCEVKAVPTPVITWKKVKHSPEGTEGLEELPGDHVNIAVQVRGGPSDHETTSWILINPLRKEDEGVYHCHAANAIGEAQSHGTVTVLDLNRYKSLYSSVPGDLL
For B1, the “PI3K phosphorylation (Western blot) in P10 RGCs after co-administration of IGF-1 and IGFBPL1, compared to the control group” value turned out to be 6 fold; the “mTOR phosphorylation (Western blot) in P10 RGCs after co-administration of IGF-1 and IGFBPL1, compared to the control group” value was found to be 3 fold.
